Results reported in the supplement of paper PMC10567573.
± gives the standard deviation.

Assay: protein stability index of a GFP-peptide fusion (GPS, HEK-293T) (PSI 1-6); higher = more stable
[1] = treatment: DMSO, c terminus: a fixed tail appended
[2] = treatment: MLN4924 1 uM, 8 h, c terminus: a fixed tail appended
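Further: 24-mer peptide tiles fused after GFP, lentivirally expressed, FACS-sorted into six equal bins by GFP/DsRed ratio, decoded by Illumina sequencing, PSI is the read-weighted mean bin number.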

| Sequence | protein stability index [1] | protein stability index [2] | protein stability index (treatment: DMSO, c terminus: native) | protein stability index (treatment: MLN4924 1 uM, 8 h, c terminus: native) |
| --- | --- | --- | --- | --- |
| SCEVSEENCERREAFWAEWKDLTL [TCAP] | 4.16 ± 0.2 | 4.21 ± 0.39 | – | – |
| KIAQNLDFVNLMAYDFHGSWEKVT [CHIT1] | 2.42 ± 0.35 | 2.18 ± 0.39 | – | – |
| GPGAHILRRKSPASGQGPMCNVKA [ADAMTS4] | 4.05 ± 0.34 | 3.76 ± 0.36 | – | – |
| KEIAKNLIQPINHTTLQCLAARVI [FEM1C] | 2.33 ± 0.5 | 2.33 ± 0.47 | – | – |
| GRHHSQSTEVQAHPYSTTFQESAS [TEKT4] | 4.31 ± 0.2 | 4.46 ± 0.3 | – | – |
| VAGGLVACRVTELQQQPLCTSVNT [LRRC59] | 2.39 ± 0.5 | 2.59 ± 0.18 | – | – |
| SQKEMDKAETKTKKAAESLRRSVE [FCHO1] | 5.24 ± 0.29 | 5.23 ± 0.38 | – | – |
| YILLVTSDVLTISGTIMKIGIEAK [MCOLN1] | 3.09 ± 0.5 | 3.17 ± 0.39 | – | – |
| YYLHPLPAGAEYCSSARHPAWGHC [SCNN1D] | 2.12 ± 0.2 | 2.21 ± 0.12 | – | – |
| AQLRLQLEVSQLEGSLQQPKAQSA [SMG5] | 3.66 ± 0.24 | 3.7 ± 0.28 | – | – |
| PASGSGADSEPARHIFSFSWLNSL [TRIM55] | 2.36 ± 0.16 | 2.5 ± 0.21 | – | – |
| ATVPSNMMSVNGQAKTHTDSSEKE [ACBD3] | 5.35 ± 0.23 | 5.45 ± 0.19 | – | – |
| DRLASNVAKRKSSMPQKFLGDKGL [IKZF1] | 3.95 ± 0.11 | 4.05 ± 0.17 | – | – |
| IYCGAGVQKDHENYMKILLKVGGI [PCMTD1] | 2.26 ± 0.17 | 2.25 ± 0.44 | – | – |
| PAFIIVKLSPLRDRLVVTECQLTH [ZSWIM9] | 3.33 ± 0.57 | 3.02 ± 0.54 | – | – |
| EPGGYDSSSTLMSSELETTSFFDS [DVL3] | 4.96 ± 0.31 | 4.96 ± 0.21 | – | – |
| AAGSPRSPGPLPGARGLHLPDAGS [ISL2] | 4.6 ± 0.35 | 4.72 ± 0.16 | – | – |
| AQQLEEEGPMEEEEAQPMAAPEGK [EID1] | 5.68 ± 0.29 | 5.53 ± 0.35 | – | – |
| ATETQALAQRTQQDSTRTVGERLQ [TEKT4] | 5.14 ± 0.43 | 5.43 ± 0.15 | – | – |
| QLQSMPSRELASMNLDIVDLLKKA [RHOBTB3] | 3.46 ± 0.35 | 3.79 ± 0.47 | – | – |
| LSNLVQHILKKYYGNGMRKSPEMP [RTP4] | 2.43 ± 0.35 | 2.28 ± 0.11 | – | – |
| AAFPNLANLSRTQLLHLGLTQGLI [KLHDC10] | 2.58 ± 0.3 | 2.27 ± 0.2 | – | – |
| TDRIAAAQYSVTGSAVARAVCKAT [SNAP91] | 3.9 ± 0.24 | 3.94 ± 0.19 | – | – |

| Sequence | protein stability index [1] | protein stability index [2] | protein stability index (treatment: DMSO, c terminus: native) | protein stability index (treatment: MLN4924 1 uM, 8 h, c terminus: native) |
| --- | --- | --- | --- | --- |
| LCSFLLLLLLQVSSSYAGQFRVIG [MOG] | 3.39 ± 0.38 | 3.29 ± 0.29 | – | – |
| ENITTVSVIKDHHTRSITSCCFDP [WDR88] | 3.55 ± 0.28 | 3.78 ± 0.16 | – | – |
| SNFETYPENDWDTAAPVPQKDLEI [PRKX] | 5.03 ± 0.12 | 5.15 ± 0.2 | – | – |
| RADFVLAANSYDLAIKAITSSAKV [FKBP8] | 2.72 ± 0.18 | 2.84 ± 0.3 | – | – |
| SKLASMSNDFKSVLEVRTENLKQQ [STX5] | 4.04 ± 0.28 | 4.21 ± 0.32 | – | – |
| LQILAYGNQESKLIILASGGPQAL [CTNNB1] | 2.89 ± 1.4 | 2.22 ± 1.1 | – | – |
| EVEWTEDLALDLGPQSRELTLKVL [C2CD2L] | 3.44 ± 0.19 | 3.6 ± 0.36 | – | – |
| LCSRQDLYPALKGVNTVFHCASPP [NSDHL] | 2.66 ± 0.32 | 2.79 ± 0.25 | – | – |
| VVIRDIDERAMELLIDFAYTSQIT [KLHL20] | 3.19 ± 0.55 | 2.67 ± 0.57 | – | – |
| RANRGILQQERQRLGQRQPPPSEP [DNAJC4] | 4.79 ± 0.22 | 4.79 ± 0.087 | – | – |
| ERITILRGNHESRQITQVYGFYDE [PPP2CA] | 2.84 ± 0.13 | 3.1 ± 0.25 | – | – |
| MLLDIKTRLEQEIATYRSLLEGQD [KRT15] | 2.9 ± 0.34 | 3.07 ± 0.34 | – | – |
| VHPFVNYNSSRFGEGVERELFVRE [MYORG] | 3.09 ± 0.18 | 3 ± 0.37 | – | – |
| INQEELRALEEVEMKLQKNFLTQR [C10orf62] | 3.66 ± 0.39 | 3.83 ± 0.34 | – | – |
| IYGMEGIPEKDMDERRRLLEQKTQ [ZNF207] | 4.6 ± 0.17 | 4.69 ± 0.15 | – | – |
| ALSDAEFEGEGDYEEGMYADWWQE [P3H4] | 4.97 ± 0.23 | 5.15 ± 0.17 | – | – |
| SDSDSELSSSEGLEPGSADPLANG [PSD2] | 5.5 ± 0.35 | 5.59 ± 0.14 | – | – |
| LLDKTCDQVMEFSWSALWNITDET [ZER1] | 2.37 ± 0.28 | 2.35 ± 0.34 | – | – |
| LAQQLCTALLFLATPELSIIHCDL [DYRK1B] | 3.04 ± 0.42 | 3.23 ± 0.42 | – | – |
| SQMPPPAGGTSDDPEPSGPHLPRV [SCNN1D] | 5.23 ± 0.31 | 5.43 ± 0.12 | – | – |
| CASKYGRDWERYTAAVPYRLLPGI [DHCR7] | 2.05 ± 0.24 | 2.2 ± 0.21 | – | – |
| HGLLGSPVRAAASSPVTTLTQTMH [CDC25B] | 3.7 ± 0.21 | 3.79 ± 0.17 | – | – |
| SLKLIKRLYVDKSLNLSTEFISST [SERPINB5] | 2.38 ± 0.26 | 2.11 ± 0.15 | – | – |

| Sequence | protein stability index [1] | protein stability index [2] | protein stability index (treatment: DMSO, c terminus: native) | protein stability index (treatment: MLN4924 1 uM, 8 h, c terminus: native) |
| --- | --- | --- | --- | --- |
| RDYIHSLKLLNVLEEYITDEQKEE [FAM9B] | 3.37 ± 0.38 | 3.52 ± 0.34 | – | – |
| TYTHGLGLHRRPGAGHCSASPGPA | 3.42 ± 0.24 | 3.48 ± 0.24 | – | – |
| LTELVQRRITYLQNPKDCSKAKKL [FUT8] | 3.99 ± 0.35 | 4.08 ± 0.24 | – | – |
| RDWWNSTSFSNYYRTWNVVVHDWL [SOAT2] | 2.35 ± 0.34 | 2.26 ± 0.21 | – | – |
| RERLGEIHTLPLPASLKAYLLYQ [SPSB1] | – | – | 2.3 ± 0.32 | 2.26 ± 0.27 |
| RLVFLAAFVVYLETETLVTREAVT [TSN] | 3.6 ± 0.24 | 2.82 ± 0.34 | – | – |
| LSSNREAHQHRDKMQQSKNQVVSS [CSNK1G3] | 4.72 ± 0.21 | 4.81 ± 0.37 | – | – |
| SQLDSGVSQAVEGPEELSRSSSES [RIPK4] | 5.5 ± 0.087 | 5.54 ± 0.26 | – | – |
| GNYMEAKSVLIPVYGVSKETFLSF [RHOBTB3] | 2.69 ± 0.53 | 2.31 ± 0.34 | – | – |
| PTQGPETPRSPEGTTEAATQDGKE [PXN] | 5.62 ± 0.19 | 5.48 ± 0.22 | – | – |
| YECTVCKKRFTRRSHLIGHQRTHS [ZNF449] | 4.86 ± 0.39 | 5.05 ± 0.24 | – | – |
| KLDFKEKAQAKVGSLDNAHHVPGG [MAP2] | 4.73 ± 0.2 | 4.7 ± 0.16 | – | – |
| TLCDVTLRVEQKDFPAHRIVLAAC [KLHL12] | 2.21 ± 0.52 | 1.83 ± 0.53 | – | – |
| PLGVDESLFSYGLRESIASYLSLT [SLA] | 2.03 ± 0.19 | 2.3 ± 0.13 | – | – |
| ELEKLAEKNIILEEKIQVLQQQNE [MTUS2] | 4.63 ± 0.32 | 4.53 ± 0.22 | – | – |
| THSRMGSIMSTGIVQGSSGAQGSG [CARM1] | 4.48 ± 0.1 | 4.26 ± 0.34 | – | – |
| ARYYLVQGLIEDCQLALQQKRETL [KCTD13] | 2.11 ± 0.19 | 2.19 ± 0.24 | – | – |
| DSLGGSQEMVQRPQPHRNRAGLDL [TRAF3IP2] | 4.87 ± 0.23 | 4.58 ± 0.41 | – | – |
| VENECYQVFLDRINRADYCPECYP [TOR1AIP2] | 2.43 ± 0.42 | 2.62 ± 0.27 | – | – |
| MPSPCSCMSFNPETRRLSIGLDNG [WDFY2] | 3.19 ± 0.13 | 3.29 ± 0.25 | – | – |
| CSNLVKTRRRAVGWWKRLFTLKEE [ARL6IP1] | 2.42 ± 0.28 | 2.6 ± 0.21 | – | – |
| FNYRYFEVEEADGNKQWWFGGGCD [CPOX] | 2.48 ± 0.23 | 2.58 ± 0.28 | – | – |
| DNAVKNHWNSTIKRKVDTGGFLSE [MYBL2] | 3.87 ± 0.2 | 3.71 ± 0.14 | – | – |

| Sequence | protein stability index [1] | protein stability index [2] | protein stability index (treatment: DMSO, c terminus: native) | protein stability index (treatment: MLN4924 1 uM, 8 h, c terminus: native) |
| --- | --- | --- | --- | --- |
| PTPANEERRGGLPPLPLHPGGDQG [WAS] | 5.38 ± 0.22 | 5.39 ± 0.065 | – | – |
| KATAAFSNVGTAISKKFGDMSYSI [TPD52L1] | 2.72 ± 0.14 | 2.72 ± 0.13 | – | – |
| NNLEPILEGYISNLRKQLETLSGD [KRT71] | 3.07 ± 0.26 | 3.18 ± 0.35 | – | – |
| SDDAAAPALETQPQGDEEDIASRY [SMOC2] | 5.62 ± 0.18 | 5.47 ± 0.11 | – | – |
| ALERRRRALQEEERAAAQARRELQ [ZBED3] | 5.18 ± 0.12 | 4.86 ± 0.19 | – | – |
| VDSEQLRRDCDALMAGCIQEARER [CDKN1A] | 4.82 ± 0.15 | 4.7 ± 0.28 | – | – |
| FRLVEKSCPEGDASECPQATNAKD [PPEF2] | 5.11 ± 0.21 | 5.41 ± 0.28 | – | – |
| TMGLRHLPVVNAVGEIVGIITRHN [CLCN6] | 2.47 ± 0.19 | 2.41 ± 0.12 | – | – |
| AGGDATENFEDVGHSTDAREMSKT [CYB5A] | 5.44 ± 0.28 | 5.3 ± 0.15 | – | – |
| AFWSLVTLGSSFIPGEHFWLLLLT [SPNS1] | 2.85 ± 1.5 | 2.91 ± 1.1 | – | – |
| NFPQCVLEISDQEVLEWYTAKDFI [EFHC1] | 2.51 ± 0.33 | 2.6 ± 0.45 | – | – |
| DSMEGKRSPYAGLQLGAAKKPPVT [TRIM29] | 4.58 ± 0.35 | 4.52 ± 0.18 | – | – |
| LSGVEEELQRTKQEVLSLRRENST [SASS6] | 5.07 ± 0.22 | 5 ± 0.21 | – | – |
| QSGLVWTNCWLIRELNLPFGGMKS [ALDH8A1] | 2.6 ± 0.48 | 2.61 ± 0.68 | – | – |
| HDEDIKTTNVKSASRQKTSLGIEL [ZNF396] | 4.5 ± 0.27 | 4.58 ± 0.14 | – | – |
| RPRKLYKHSSTSSRIAKGGVDHTK [BTBD10] | 4.06 ± 0.21 | 4.12 ± 0.23 | – | – |
| ERQCALRVFKARIYTNRYETNEED [FBXO39] | 3.54 ± 0.36 | 3.61 ± 0.41 | – | – |
| HGPQLPTGIEGNWGRLLEQVGTMA [ZBED2] | 3 ± 0.35 | 3.08 ± 0.24 | – | – |
| EISKDNSCKENCTCSSCLLRAPTI [EDARADD] | 4.67 ± 0.29 | 4.86 ± 0.14 | – | – |
| RDQGSSALSGVGGIRLPNGKLKCD [IKZF1] | 4.66 ± 0.33 | 4.68 ± 0.32 | – | – |
